According to article PMC11758377 (2026):

Molecular target: H3K4me3 peptide (Homo sapiens, UniProt P68431)
Test: MST

Kd: 2900 nM
B1: BPTF-PHD PHD (protein)
chain: KLYCICKTPYDESKFYIGCDRCQNWYHGRCVGILQSEAELIDEYVCPQCQST
